Each block holds one molecule with its values, some of them ahead of it.
Assays:
[1] = tested on: mucin (TAG-72 tumor antigen); assay: ELISA antigen binding of hE11 BsAbs; settings: FIG. 6A
Description: (§1) The anti-PEG binding specificity of BsAbs was measured by adding graded concentrations of PEG2×TAG72, PEG2×DNS, hCC49 scFv, h6.3Fab×EGFR or h6.3Fab×CD19 in 50 μL 2% skim milk to the mucin, BSA-PEG5000, NH2-PEG3k-NH2 or BSA coated plates at RT for 1 h. The plates were washed with PBS-T (PBS containing 0.05% Tween-20) three times. Rabbit anti-6×His (2 μg/mL) supplemented with HRP-conjugated goat anti-rabbit (2 μg/mL) or HRP-conjugated goat Ig anti human IgG Fab (2 μg/mL) (Jackson ImmunoResearch Laboratories, West Grove, Pa.) in 50 μL dilution buffer were added for 1 h at room temperature. The plates were washed with PBS-T (PBS containing 0.05% Tween-20) three times and with PBS two times. Bound peroxidase activity was measured by adding 150 μL/well ABTS substrate solution (BioLegend, San Diego, Calif.) for 30 min at room temperature. The absorbance (405 nm) of wells was measured in a microplate reader (Molecular Device, Menlo Park, Calif.).
(§2) Binding of the BsAbs was detected by ELISA. Microtiter plates were first coated with antigens and then PEG2×TAG72, PEG2×DNS BsAbs or hCC49 (anti-TAG72) single chain antibody was added. After the plates were extensively washed to remove unbound antibodies, the remaining bound antibodies in each well were detected with HRP-conjugated secondary antibody. […] In sum, PEG2×TAG72 anti-PEG (hE11) BsAb of example 1.2 can bind both PEG and tumor antigens.

[2] = tested on: Raji (CD19+) cells; assay: Cytotoxicity assay of Doxisome with h6.3 BsAbs (3H-thymidine); assay type: cell-based; settings: compared with Doxisome alone
Description: A431 (EGFR^high) and Raji (CD19^high) cells (5000 cells/well) were seeded in 96-well plates overnight. Fifteen microgram per mL of h6.3Fab×EGFR or h6.3Fab×CD19 BsAbs were added to the cells for 30 min at 37° C. and followed by graded concentrations of free doxorubicin or PEGylated liposomal doxorubicin (Doxisome®, Taiwan Liposome Company Ltd., Taipei, Taiwan) was added to the cells in triplicate at 37° C. for 4 h. The cells were subsequently washed once and incubated for an additional 48 h in fresh culture medium and then pulsed for 16 h with ^3H-thymidine (1 μCi/well). Results are expressed as percent inhibition of ^3H-thymidine incorporation into cellular DNA in comparison to untreated cells.
Next, the ability of whether h6.3Fab×CD19 and h6.3Fab×EGFR BsAbs could increase the cytotoxicity of the drug-loaded nanoparticles (NPs) to antigen-positive cancer cells was investigated. Raji (CD19+) and A431 (EGFR+) cells were incubated with h6.3Fab×CD19 and h6.3Fab×EGFR, followed by the addition of graded concentrations of Doxisome (i.e., PEGylated liposomal doxorubicin).

[3] = tested on: Raji cells (CD19+); assay: Flow cytometry: BsAb-directed PEG-liposome Texas Red / PEG-Qdot655 on cells; assay type: cell-based; settings: PEG-liposome Texas Red and PEG-Qdot655, 10 μg/mL BsAb
Description: PEG2×TAG72 or control PEG2×DNS BsAbs (10 μg/mL) were incubated with A-375 (TAG72−), MCF-7 (TAG72+), Jurkat (TAG72+) or OVCAR-3 (TAG72+) cells at 4° C. for 30 min followed by FITC-labeled goat anti-human immunoglobulin second antibody (2 μg/mL) (Jackson ImmunoResearch Laboratories, West Grove, Pa.) or FITC-labeled 4arm-PEG (2 μg/mL). Tumor-specific targeting of PEGylated compounds was also examined by staining A431 (EGFR^high), and Raji (CD19^high) cell lines with 10 μg/mL of h6.3Fab×EGFR or h6.3Fab×CD19 BsAbs in PBS containing 0.05% BSA (staining buffer) at 4° C. for 30 min. The cells were washed with cold PBS for 3 times. PEG-Qdot655 (8 nM) (Invitrogen, Grand Island, N.Y.) or PEG-liposomal Texas-Red (100 nm size, 50 μM, lipid conc.) (FormuMax Scientific, Palo Alto, Calif.) in staining buffer was added to cells for 30 min at 4° C. Raji cells (CD19+) or SKBR3 cells (HER2+) were incubated with 10 μg/ml h15-2b-knob/BU12-hole, h15-2b-knob/anti-Her2-hole, h6-3-knob/BU12-hole or h6-3-knob/anti-Her2-hole BsAbs, washed and incubated with 0.25 μg/ml FITC-labeled goat anti-human IgG or 10 nM methoxy-PEG Qdot 655 at 4° C. for 30 min. After washing with cold PBS, the surface fluorescence of 10^4 viable cells was measured by FACScaliber flow cytometer (Becton Dickinson, Mountain View, Calif., USA) then analyzed with Flowjo (Tree Star Inc., San Carlos, Calif., USA). […]

[4] = target: BSA (Bos taurus, UniProt P02769); assay: ELISA antigen binding of BsAbs, control protein
Sequence of BSA (P02769 25-607): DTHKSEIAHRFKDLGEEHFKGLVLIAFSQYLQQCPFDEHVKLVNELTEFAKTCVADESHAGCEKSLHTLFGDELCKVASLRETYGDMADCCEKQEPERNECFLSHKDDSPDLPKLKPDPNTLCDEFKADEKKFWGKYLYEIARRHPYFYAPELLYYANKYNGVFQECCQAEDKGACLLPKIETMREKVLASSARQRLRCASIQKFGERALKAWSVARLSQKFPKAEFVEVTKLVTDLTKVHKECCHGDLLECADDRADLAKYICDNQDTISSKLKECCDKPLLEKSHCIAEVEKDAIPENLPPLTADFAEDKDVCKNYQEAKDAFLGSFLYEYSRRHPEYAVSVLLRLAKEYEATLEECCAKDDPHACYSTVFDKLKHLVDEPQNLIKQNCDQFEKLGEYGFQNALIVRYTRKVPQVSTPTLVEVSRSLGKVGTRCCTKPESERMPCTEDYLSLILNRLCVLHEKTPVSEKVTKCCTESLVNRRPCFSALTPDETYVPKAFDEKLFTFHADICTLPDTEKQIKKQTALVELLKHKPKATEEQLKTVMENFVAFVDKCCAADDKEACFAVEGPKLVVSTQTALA
Description: as §1
as §2, with “antigens. […]” for “antigens.”

[5] = tested on: A431 (EGFR+) tumor cells; assay: Confocal live cell imaging of PEG-Qdot655 internalization; assay type: cell-based, human; settings: 10 μg/mL BsAb, 16 nM PEG-Qdot655
Description: The coverslips (30 mm) in POC chambers were coated with 10 μg/mL poly-L-lysine in PBS for 30 min at room temperature. The coverslips were washed twice with PBS and then 5×10^4 cells/chamber of A431 (EGFR+) tumor cells were seeded on the coverslips. A431 cells were incubated with 10 μg/mL of h6.3Fab×EGFR or h6.3Fab×CD19 BsAbs at 37° C. for 30 min containing 1 μg/mL of Hoechst 33342 and 100 nM of LysoTracker® Red DND-99 (Invitrogen Life Technologies Corporation, NY, USA). The cells were washed with culture medium for 2 times. Cell imaging was recorded with an Axiovert 200M Confocal Microscope (Carl Ziess Inc., Thornwood, N.Y.) after adding 16 nM of PEG-Qdot655 solution (Invitrogen Life Technologies Corporation, NY, USA).
To verify whether BsAb-targeted substance could be internalized by antigen-positive cancer cells, live cell imaging was performed by staining cells with lysosome tracker and BsAbs, followed by the addition and incubation of PEG-Qdot655.

[6] = ELISA PEG binding of h6.3 BsAbs; settings: FIG. 14A
Description: as §1, with “The anti-PEG binding specificity of BsAbs was measured by adding graded concentrations of PEG2×TAG72, PEG2×DNS, hCC49 scFv, h6.3Fab×EGFR or h6.3Fab×CD19 in 50 μL 2% skim milk to the mucin, BSA-PEG5000, NH2-PEG3k-NH2 or BSA coated plates at RT for 1 h.” left out
The PEG-binding kinetics of h6-3Fab×EGFR and h6.3Fab×CD19 BsAbs were verified by Microscale Thermophoresis (MST) (FIGS. 14D and 14E).

[7] = tested on: Jurkat T cells (Tag-72 positive); assay: Cancer cell selectivity of hE11 BsAbs (surface immunofluorescence); assay type: cell-based, human; settings: culture medium, FIG. 10
Description: PEG2×TAG72 or control PEG2×DNS BsAbs (10 μg/mL) were incubated with A-375 (TAG72−), MCF-7 (TAG72+), Jurkat (TAG72+) or OVCAR-3 (TAG72+) cells at 4° C. for 30 min followed by FITC-labeled goat anti-human immunoglobulin second antibody (2 μg/mL) (Jackson ImmunoResearch Laboratories, West Grove, Pa.) or FITC-labeled 4arm-PEG (2 μg/mL). Tumor-specific targeting of PEGylated compounds was also examined by staining A431 (EGFR^high), and Raji (CD19^high) cell lines with 10 μg/mL of h6.3Fab×EGFR or h6.3Fab×CD19 BsAbs in PBS containing 0.05% BSA (staining buffer) at 4° C. for 30 min. The cells were washed with cold PBS for 3 times. […] After washing with cold PBS, the surface fluorescence of 10^4 viable cells was measured by FACScaliber flow cytometer (Becton Dickinson, Mountain View, Calif., USA) then analyzed with Flowjo (Tree Star Inc., San Carlos, Calif., USA). […]
The binding specificity of monovalent BsAbs with their target proteins was measured by collecting the culture medium of BsAbs producing cells, adding the collected medium to cells that expressed the target protein, then determining the binding by ELSA. After washing the cells, the bound BsAbs were detected by FITC-labeled goat anti-human immunoglobulin second antibody. […]

- binding to mucin [1]: bound to mucin
B1: hcc49 scFv: humanized single-chain antibody fragment against TAG-72 antigen (protein)
scFv: QVQLVQSGAEVKKPGASVKVSCKASGYTFTDHAIHWVRQAPGQCLEWMGYFSPGNDDFKYSQKFQGRVTITADKSASTAYMELSSLRSEDTAVYYCARSWIMQYWGQGTLVTVSSGGGGSGGGGSGGGGSDIVMTQSPDSLAVSLGERATINCKSSQSVLYSSNNKNYLAWYQQKPGQPPKLLIYWASTRESGVPDRFSGSGSGTDFTLTISSLQAEDVAVYYCQQYYSYPLTFGCGTKVEIK

- binding to BSA [4]: not to the control BSA protein
- binding to NH2-PEG10,000-NH2 [6]: bound to the NH2-PEG10,000-NH2
B2: h6.3Fab×CD19: monovalent humanized anti-PEG h6.3 Fab fused to hBU12 anti-CD19 dsFv; SEQ ID NO 9, 10, 4, 11, 6 (protein)
chain 1: DIVMTQSPDSLAVSLGERATINCKSSQSVLYSSNQMNYLAWYQQKPGQPPKLLIYWASTRESGVPDRFSGSGSGTDFTLTISSLQAEDVAVYYCLQYLSSWTFGGGTKLEIKTYSLSSTLTLSKADYEKHKLYACEVTHQGLSSPVTKSFNRGEC
chain 2: QVQLVQSGSELKKPGASVKVSCKASGYTFKNYGMNWVRQAPGQGLEWMGWINTYTGQPIYANDFKGRFVFSLDTSVSTAYLQISSLKAEDTAVYYCARDWGPYWGQGTLVTVSSASTKGPSVFPLAPSSKSTSGGTAALGCLVKDYFPEPVTVSWNSGALTSGVHTFPAVLQSSGLYSLSSVVTVPSSSLGTQTYICNVNHKPSNTKVDKRVEPKSCDK
chain 3: VDLVTVSSASTGGGSGQLGGGGS
chain 4: QVQLQESGPGLVKPSQTLSLTCTVSGGSISTSGMGVGWIRQHPGKCLEWIGHIWWDDDKRYNPALKSRVTISVDTSKNQFSLKLSSVTAADTAVYYCARMELWSYYFDYWGQGTLVTVSSGGGGSGGGGSGGGGSEIVLTQSPATLSLSPGERATLSCSASSSVSYMHWYQQKPGQAPRLLIYDTSKLASGIPARFSGSGSGTDFTLTISSLEPEDVAVYYCFQGSVYPFTFGCGTKLEIKR
chain 5: TRHHHHHH
modifications: Humanized 6.3 VL-Ck; Humanized 6.3 VH-CH1; Peptide Linker; hBU12 dsFv; 6xHis Tag
- effect on cytotoxicity of Doxisome to Raji cells [2]: enhanced cytotoxicity of Doxisome
- directing PEGylated substance to Raji cells [3]: capable of directing PEGylated substance to Raji cells
- uptake of PEG-Qdot655 into A431 cells (endocytic vesicles) [5]: failed to produce PEG-Qdot655 signals

B3: PEG×TAG72: monovalent BsAb: hE11 anti-PEG Fab fused to anti-TAG72 scFv (example 2.1) (protein)
light: DVVMTQSPLSLPVTLGQPASISCRSSKSIVHSNGNTYLEWFQQRPGQSPRRLIYKVSKRMSGVPDRFSGSGSGTDFTLKISRVEAEDVGVYYCSQGSHVPPTFGGGTKVEIKRTVAAPSVFIFPPSDEQLKSGTASVVCLLNNFYPREAKVQWKVDNALQSGNSQESVTEQDSKDSTYSLSSTLTLSKADYEKHKLYACEVTHQGLSSPVTKSFNRGEC
heavy: QVQLVQSGAEVKKPGASVKVSCKASGYTFTTYTMNWVRQAPGQGLEWMGYIIPSSGYVDYNQKFKGRVTMTRDTSTSTVYMELSSLRSEDTAVYYCVRSLDGYFWFAYWGQGTLVTVSSASTKGPSVFPLAPSSKSTSGGTAALGCLVKDYFPEPVTVSWNSGALTSGVHTFPAVLQSSGLYSLSSVVTVPSSSLGTQTYICNVNHKPSNTKVDKRVVDLVTVSSASTGGGSGQLGGGGSQVQLVQSGAEVKKPGASVKVSCKASGYTFTDHAIHWVRQAPGQCLEWMGYFSPGNDDFKYSQKFQGRVTITADKSASTAYMELSSLRSEDTAVYYCARSWIMQYWGQGTLVTVSSGGGGSGGGGSGGGGSDIVMTQSPDSLAVSLGERATINCKSSQSVLYSSNNKNYLAWYQQKPGQPPKLLIYWASTRESGVPDRFSGSGSGTDFTLTISSLQAEDVAVYYCQQYYSYPLTFGCGTKVEIKTRHHHHHH
- binding of monovalent BsAb to Jurkat T cells [7]: bound to Jurkat T cells

From patent US10188742B2, “Bi-specific antibodies and uses thereof” (ACADEMIA SINICA, priority 2014, dated 2019)
